Experimental data: publication doi:10.1101/2025.08.21.671625, “α-catenin phosphorylation is actomyosin-sensitive and required for epithelial barrier functions through Afadin” (bioRxiv, 2025)

Molecular target: T1, full length αE-cat R551A (human, UniProt P35221 1-906, R551A)
T1 construct: αE-catenin (CTNNA1), human, full length, M3-domain salt-bridge mutant R551A; also called GST-αE-catenin (human) R551A
T1 sequence (looked up): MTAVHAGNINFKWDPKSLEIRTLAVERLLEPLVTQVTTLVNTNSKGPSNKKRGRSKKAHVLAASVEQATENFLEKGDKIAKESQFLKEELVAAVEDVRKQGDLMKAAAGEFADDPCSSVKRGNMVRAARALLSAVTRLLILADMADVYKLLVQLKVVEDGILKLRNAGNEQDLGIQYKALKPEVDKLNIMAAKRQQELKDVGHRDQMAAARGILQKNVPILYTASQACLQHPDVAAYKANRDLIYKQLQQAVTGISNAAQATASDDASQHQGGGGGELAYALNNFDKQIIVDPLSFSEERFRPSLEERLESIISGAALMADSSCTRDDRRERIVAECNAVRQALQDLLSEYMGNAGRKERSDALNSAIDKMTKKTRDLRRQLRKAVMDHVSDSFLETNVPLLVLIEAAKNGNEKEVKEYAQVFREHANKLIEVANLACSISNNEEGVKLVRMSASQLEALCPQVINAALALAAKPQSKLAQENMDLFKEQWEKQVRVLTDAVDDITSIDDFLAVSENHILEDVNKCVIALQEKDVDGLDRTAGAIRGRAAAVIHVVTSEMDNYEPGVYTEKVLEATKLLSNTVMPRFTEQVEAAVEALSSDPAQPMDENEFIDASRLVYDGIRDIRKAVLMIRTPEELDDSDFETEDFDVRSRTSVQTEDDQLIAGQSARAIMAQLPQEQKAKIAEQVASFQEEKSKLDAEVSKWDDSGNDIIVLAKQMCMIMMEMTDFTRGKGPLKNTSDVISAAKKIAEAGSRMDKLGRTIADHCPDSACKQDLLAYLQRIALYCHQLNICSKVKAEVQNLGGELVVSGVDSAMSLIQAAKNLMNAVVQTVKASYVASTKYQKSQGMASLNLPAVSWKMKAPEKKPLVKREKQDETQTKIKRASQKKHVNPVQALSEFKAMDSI
Test: pull-down; GST-Afdn-CC-ABR (or GST control) pre-bound to glutathione resin, mixed with α-cat prey proteins, washed, eluted with free glutathione; interaction strength assessed by Coomassie staining
Settings: both partners purified

binding result: binds
B1: GST-Afadin-Coiled-coil α-cat binding region (Afadin-CC-ABR; amino acids 1391–1449) (domain or fragment, rat)
chain: MDLPLPPPPANQAAPQSAQVAAAERKKREEHQRWYEKEKARLEEERERKRREQERKLGQ
notes: cDNA from the Takai lab; also called GST-Afadin-CC-ABR; GST-Afdn-CC-ABR; not shown: GST, N-terminal, kept
